For one substance, stoichiometry N results are on record in publication PMC12576452.

The experiment deals with HBV-S/preS1^16-42 antigen, untagged, produced in P. purpureum (Hepatitis B virus) (UniProt P03138). The experiment is described as follows: SDS-PAGE under native, non-reducing (-DTT) and reducing (+DTT) conditions with western blot; lysates of freeze-dried algal biomass; bands of monomers, dimers and oligomers detected with anti-preS1 antibodies; disulfide-linked. (A western blot detects proteins with antibodies after separation by electrophoresis.)

In general, stoichiometry N refers to a count of units in the complex or per binding partner. “HBV-S/preS1^16-42 antigen, untagged, produced in P. purpureum (from UniProt P03138 16-42)” gave a stoichiometry N of 2.
